{
  "source": "paper PMC9802656",
  "about": "(2022)",
  "binders": {"B1": {"name": "monoclonal antibody m31A7 (IgG) (antibody, V domains shown)", "VH": "EVQLQQSGPEMVKPGASVKISCKTSGYTFTEYTIYWVKQSHGKSLEWLGGINPNIGDTTYNQKFKGKATLTVDTSSSTAYMELRSLTSEDSAVYYCAREVYNYSFAYWGQGTLVTVSA", "VL": "DIVMSQSPSSLAVSVGEKVTMSCKSSQSLLYSSNQKNYLAWYQQKLGQTPKLLIYWASSRESGVPDRFTGSGSGTDFTLTISSVRAEDLAVYYCQQYYRYPLTFGVGTKLELK"}},
  "key": {"[1]": {"target": "SARS-CoV-2 WT S protein expressed on HEK293T cells (SARS-CoV-2, UniProt P0DTC2)", "assay": "FACS"}, "SARS-CoV-2 S protein S1": {"target": "SARS-CoV-2 S protein S1 (SARS-CoV-2)", "assay": "ELISA"}, "[2]": {"target": "SARS-CoV-2 S protein (entire S ectodomain) as used with m31A7 (SARS-CoV-2, UniProt P0DTC2 14-1213)", "assay": "ELISA"}},
  "data": [
    {"binder": "B1", "values": [
      {"measurement": "EC50", "setting": "[1]", "result": 0.0685, "unit": "nM"},
      {"measurement": "EC50", "setting": "SARS-CoV-2 S protein S1", "result": 0.0235, "unit": "nM"},
      {"measurement": "EC50", "setting": "[2]", "result": 0.0312, "unit": "nM"}
    ]}
  ]
}
